B1: RHOBTB3 (parent)
chain: STTEGIQLAKELGATYLELHSLDD
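Further: lentivirally expressed fusions sorted by FACS into six bins by GFP to DsRed ratio, PSI derived from sequencing read proportions per bin multiplied by bin number.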

Variants of: B1
Experiment: protein stability index of a GFP-peptide fusion (GPS, HEK-293T) (PSI 1-6); higher = more stable
Conditions: c terminus: a fixed tail appended
With WTTEGIQLAKELGATYLELHSLDD [S1W] the protein stability index was 2.74.
QTTEGIQLAKELGATYLELHSLDD [S1Q] gave a protein stability index of 4.18.
With NTTEGIQLAKELGATYLELHSLDD [S1N] the protein stability index was 3.19.
In the case of VTTEGIQLAKELGATYLELHSLDD [S1V], the protein stability index is reported as 3.06.
RTTEGIQLAKELGATYLELHSLDD [S1R] showed a protein stability index of 3.64.
PTTEGIQLAKELGATYLELHSLDD [S1P] gave a protein stability index of 3.63.
Variant TTTEGIQLAKELGATYLELHSLDD [S1T] has a protein stability index of 3.56.
Variant STTEGIQLAKEDGATYLELHSLDD [L12D] has a protein stability index of 5.62.
Variant STTEGIQLAKECGATYLELHSLDD [L12C] has a protein stability index of 3.96.
Work on STTEGIQLAKEAGATYLELHSLDD [L12A] yielded a protein stability index of 5.
STTEGIQLAKVLGATYLELHSLDD [E11V] showed a protein stability index of 2.87.
STTEGIQLAKDLGATYLELHSLDD [E11D] gave a protein stability index of 4.01.
Variant STTEGIQLAKALGATYLELHSLDD [E11A] has a protein stability index of 1.53.
Work on STTEGIQLAKLLGATYLELHSLDD [E11L] yielded a protein stability index of 2.19.
In the case of STTEGIQLAKWLGATYLELHSLDD [E11W], the protein stability index is reported as 1.73.
For STTEGIQLAKGLGATYLELHSLDD [E11G], the protein stability index was 3.86.
Variant STTEGIQLAKNLGATYLELHSLDD [E11N] has a protein stability index of 3.84.
Work on STTEGIQLAKCLGATYLELHSLDD [E11C] yielded a protein stability index of 3.42.
In the case of STTEGIQLAKHLGATYLELHSLDD [E11H], the protein stability index is reported as 4.34.
In the case of STTEGIQLAKILGATYLELHSLDD [E11I], the protein stability index is reported as 2.39.
For STTEGIQLAKFLGATYLELHSLDD [E11F], the protein stability index was 2.56.
With STTEGIQLAKTLGATYLELHSLDD [E11T] the protein stability index was 3.61.
STTEGIQLAKQLGATYLELHSLDD [E11Q] showed a protein stability index of 3.89.
STTEGIQLAKYLGATYLELHSLDD [E11Y] showed a protein stability index of 2.88.
With STTEGIQLAKPLGATYLELHSLDD [E11P] the protein stability index was 3.92.
STTEGIQLAKKLGATYLELHSLDD [E11K] gave a protein stability index of 2.94.
STTEGIQLAKMLGATYLELHSLDD [E11M] gave a protein stability index of 3.19.
STTEGIQLLKELGATYLELHSLDD [A9L] showed a protein stability index of 1.19.
For STTEGIQLKKELGATYLELHSLDD [A9K], the protein stability index was 3.6.
With STTEGIQLSKELGATYLELHSLDD [A9S] the protein stability index was 4.24.
In the case of STTEGIQLHKELGATYLELHSLDD [A9H], the protein stability index is reported as 4.38.
With STTEGIQLNKELGATYLELHSLDD [A9N] the protein stability index was 4.06.
STTEGIQLTKELGATYLELHSLDD [A9T] gave a protein stability index of 4.21.
STTEGIQLYKELGATYLELHSLDD [A9Y] showed a protein stability index of 3.12.
Variant STTEGIQLVKELGATYLELHSLDD [A9V] has a protein stability index of 2.53.
Variant STTEGIQLMKELGATYLELHSLDD [A9M] has a protein stability index of 1.74.
In the case of STTEGIQLFKELGATYLELHSLDD [A9F], the protein stability index is reported as 2.28.
In the case of STTEGIQLIKELGATYLELHSLDD [A9I], the protein stability index is reported as 2.63.
STTEGIQLDKELGATYLELHSLDD [A9D] showed a protein stability index of 4.64.
For STTEGIQLWKELGATYLELHSLDD [A9W], the protein stability index was 2.64.
STTEGIQLQKELGATYLELHSLDD [A9Q] gave a protein stability index of 3.52.
With STTEGIQLCKELGATYLELHSLDD [A9C] the protein stability index was 3.08.
STTEGIQLRKELGATYLELHSLDD [A9R] showed a protein stability index of 3.01.
STTEGIQLPKELGATYLELHSLDD [A9P] showed a protein stability index of 4.49.
Variant STTEGIQLGKELGATYLELHSLDD [A9G] has a protein stability index of 4.34.
STTEGMQLAKELGATYLELHSLDD [I6M] gave a protein stability index of 3.01.
For STTEGFQLAKELGATYLELHSLDD [I6F], the protein stability index was 2.59.
STTEGHQLAKELGATYLELHSLDD [I6H] gave a protein stability index of 4.62.
For STTEGSQLAKELGATYLELHSLDD [I6S], the protein stability index was 4.39.
Variant STTEGNQLAKELGATYLELHSLDD [I6N] has a protein stability index of 4.39.
Work on STTEGWQLAKELGATYLELHSLDD [I6W] yielded a protein stability index of 2.7.
STTEGEQLAKELGATYLELHSLDD [I6E] showed a protein stability index of 4.71.
STTEGCQLAKELGATYLELHSLDD [I6C] gave a protein stability index of 5.12.
In the case of STTEGGQLAKELGATYLELHSLDD [I6G], the protein stability index is reported as 4.9.
With STTEGTQLAKELGATYLELHSLDD [I6T] the protein stability index was 1.68.
For STTEGVQLAKELGATYLELHSLDD [I6V], the protein stability index was 4.05.
Variant STTEGLQLAKELGATYLELHSLDD [I6L] has a protein stability index of 2.87.
STTEGYQLAKELGATYLELHSLDD [I6Y] gave a protein stability index of 3.22.
With STTEGKQLAKELGATYLELHSLDD [I6K] the protein stability index was 3.94.
With STTEGQQLAKELGATYLELHSLDD [I6Q] the protein stability index was 4.54.
STTEGPQLAKELGATYLELHSLDD [I6P] showed a protein stability index of 4.31.
Variant STTEGRQLAKELGATYLELHSLDD [I6R] has a protein stability index of 3.6.
With STTEGIQEAKELGATYLELHSLDD [L8E] the protein stability index was 4.97.
Work on STTEGIQRAKELGATYLELHSLDD [L8R] yielded a protein stability index of 4.41.
In the case of STTEGIQTAKELGATYLELHSLDD [L8T], the protein stability index is reported as 4.97.
Work on STTEGIQIAKELGATYLELHSLDD [L8I] yielded a protein stability index of 4.41.
Work on STTEGIQYAKELGATYLELHSLDD [L8Y] yielded a protein stability index of 4.97.
For STTEGIQKAKELGATYLELHSLDD [L8K], the protein stability index was 4.78.
For STTEGIQVAKELGATYLELHSLDD [L8V], the protein stability index was 4.44.
With STTEGIQDAKELGATYLELHSLDD [L8D] the protein stability index was 5.04.
Work on STTEGIQGAKELGATYLELHSLDD [L8G] yielded a protein stability index of 5.04.
Variant STTEGIQPAKELGATYLELHSLDD [L8P] has a protein stability index of 4.92.
STTEGIQSAKELGATYLELHSLDD [L8S] gave a protein stability index of 4.58.
Variant STTEGIQCAKELGATYLELHSLDD [L8C] has a protein stability index of 3.94.
In the case of STTEGIQFAKELGATYLELHSLDD [L8F], the protein stability index is reported as 4.24.
STTEGIQAAKELGATYLELHSLDD [L8A] gave a protein stability index of 4.29.
STTEGIQMAKELGATYLELHSLDD [L8M] showed a protein stability index of 4.11.
STTEGIQHAKELGATYLELHSLDD [L8H] gave a protein stability index of 4.53.
For STTEGIQQAKELGATYLELHSLDD [L8Q], the protein stability index was 5.2.
STTEGIQWAKELGATYLELHSLDD [L8W] gave a protein stability index of 3.86.
In the case of STTEGIQNAKELGATYLELHSLDD [L8N], the protein stability index is reported as 4.57.
Variant STAEGIQLAKELGATYLELHSLDD [T3A] has a protein stability index of 2.94.
Work on STGEGIQLAKELGATYLELHSLDD [T3G] yielded a protein stability index of 4.01.
STLEGIQLAKELGATYLELHSLDD [T3L] showed a protein stability index of 2.37.
Work on STHEGIQLAKELGATYLELHSLDD [T3H] yielded a protein stability index of 2.49.
STKEGIQLAKELGATYLELHSLDD [T3K] gave a protein stability index of 3.42.
STDEGIQLAKELGATYLELHSLDD [T3D] gave a protein stability index of 3.97.
For STVEGIQLAKELGATYLELHSLDD [T3V], the protein stability index was 3.19.
STFEGIQLAKELGATYLELHSLDD [T3F] showed a protein stability index of 2.29.
With STYEGIQLAKELGATYLELHSLDD [T3Y] the protein stability index was 2.83.
In the case of STMEGIQLAKELGATYLELHSLDD [T3M], the protein stability index is reported as 2.31.
In the case of STNEGIQLAKELGATYLELHSLDD [T3N], the protein stability index is reported as 2.9.
Variant STWEGIQLAKELGATYLELHSLDD [T3W] has a protein stability index of 1.84.
For STPEGIQLAKELGATYLELHSLDD [T3P], the protein stability index was 3.56.

From the supplement of paper PMC10567573
